Target: human neutrophil peptide-1 (HNP-1)
Sequence (chain, as listed by the source): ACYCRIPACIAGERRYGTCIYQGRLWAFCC

B1: arginine-specific mono-ADP-ribosyltransferase-1 (ART1), mART1 released from transfected NMU cells (protein)
chain: QSYSISQLDIFSQETPLDMAPASFDDQYAGCLADMTAALPDLNHSEFQANKVYADGWAQANNQWQERRAWGSVWGSLPPSPPGFRDEHGVALLAYTANSPLHKEFNAAVREAGRSRAHYLHHFSFKTLHFLLTEALQLLRSHRSRGCQQVYRGVHGLRFRPAGPGATVRLGGFASASLKNVAAQQFGEDTFFGIWTCLGAPIRGYSFFPEEEEVLIPPFETFQVINTSRPTQGPARIYLRALGKRSTYNCEYIKEKKCRSGPCWLGSS
In the case of B1, the “ADP-ribosylation of HNP-1 by ART1 in vitro (RP-HPLC and MS of the reaction products)” value is reported as “HNP-1 was ADP-ribosylated in vitro using purified ART1”.
